From article PMC12229497, “The intracellular bacterium Orientia tsutsugamushi uses the autotransporter ScaC to activate BICD adaptors for dynein-based motility” (Nature Communications, 2025)

B6: ScaC passenger domain (residues 33–223), C-terminal TEV-6His (domain or fragment)
chain: VSNMNLDISNMGEAREGLRKDIAEVSKLLCMLEKSTASSKNLTMRLQQSDTRENEQSNHIRLLITEIESINKENDCLRQKNNQLKIKLHQLKVKLEQALARNTDLQQILPKSQAEMDNLRKQNEQLKIQLQQLQVKLQDLMSLQNKCSNLALINSVKLNYIRDIKYIALANIVIVKALASTFTEKLSKSNR
notes: source: SoluBL21 E. coli, purified (Ni-NTA, MonoQ, Superdex 200)

How the values were obtained:
[1] = target: T1, BICD2, full-length mouse (mouse, UniProt Q921C5 1-820); assay: SEC; reconstitution: BICD2 and ScaC constructs mixed in a 1:2 molar ratio, 15 min on ice, Superose 6 Increase 3.2/300 in GF150 buffer; fractions on SDS-PAGE; details: both partners purified
T1 construct: also called full-length BICD2
T1 sequence (Q921C5 whole entry): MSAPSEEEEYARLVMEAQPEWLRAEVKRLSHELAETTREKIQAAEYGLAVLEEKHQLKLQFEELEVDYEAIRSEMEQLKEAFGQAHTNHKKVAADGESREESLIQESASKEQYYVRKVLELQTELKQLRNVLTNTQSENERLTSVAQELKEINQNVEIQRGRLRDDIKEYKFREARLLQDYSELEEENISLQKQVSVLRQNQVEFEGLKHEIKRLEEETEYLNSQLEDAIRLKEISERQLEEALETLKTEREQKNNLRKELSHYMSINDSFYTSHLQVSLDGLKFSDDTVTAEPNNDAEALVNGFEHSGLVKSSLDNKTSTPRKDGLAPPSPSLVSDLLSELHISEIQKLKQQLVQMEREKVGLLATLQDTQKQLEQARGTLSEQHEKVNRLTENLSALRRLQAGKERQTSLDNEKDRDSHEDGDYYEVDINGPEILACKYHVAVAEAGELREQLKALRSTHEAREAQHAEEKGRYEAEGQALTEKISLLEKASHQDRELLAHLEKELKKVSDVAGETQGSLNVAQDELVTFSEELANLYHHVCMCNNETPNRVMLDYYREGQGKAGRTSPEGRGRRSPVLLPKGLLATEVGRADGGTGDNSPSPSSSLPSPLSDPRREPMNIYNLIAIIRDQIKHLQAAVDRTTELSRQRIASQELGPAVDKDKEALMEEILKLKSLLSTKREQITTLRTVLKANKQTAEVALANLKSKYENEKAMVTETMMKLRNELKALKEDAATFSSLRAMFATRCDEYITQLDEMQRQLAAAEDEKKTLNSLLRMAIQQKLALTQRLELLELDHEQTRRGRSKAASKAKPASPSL

[2] = target: B6; assay: as above; details: both partners purified
[3] = target: T2, RAB6^Q72L (GTP-locked RAB6 mutant) (human, UniProt P20340 1-208, Q72L); assay: pull-down; details: both partners purified
T2 construct: source: SoluBL21 E. coli, purified (Glutathione Sepharose, GST cleaved, Superose 6, with 10 μM GTP); not shown: GST, N-terminal, cleaved
T2 sequence (P20340 whole entry Q72L): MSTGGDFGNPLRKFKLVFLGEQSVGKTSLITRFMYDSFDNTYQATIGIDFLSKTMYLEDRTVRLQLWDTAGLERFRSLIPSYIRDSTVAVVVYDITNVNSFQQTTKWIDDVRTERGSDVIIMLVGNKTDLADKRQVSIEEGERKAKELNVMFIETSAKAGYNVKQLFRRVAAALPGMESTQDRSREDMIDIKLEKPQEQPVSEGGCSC

[4] = target: T3, GCN4-RANBP2^min (RANBP2 residues 2148–2240 fused to an N-terminal GCN4 dimerization tag) (human, UniProt P49792 2148-2240); assay: pull-down; details: both partners purified
T3 construct: not shown: GCN4 dimerization tag, N-terminal, kept
T3 sequence (P49792 2148-2240): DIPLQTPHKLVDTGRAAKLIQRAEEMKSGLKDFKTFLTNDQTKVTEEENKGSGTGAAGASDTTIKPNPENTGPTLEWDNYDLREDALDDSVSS

[5] = target: B6; assay: pull-down; details: both partners purified
[6] = target: the molecule itself; assay: SEC-MALS; 1 mg/mL, Superose 6 10/300, GF150 buffer, 0.5 ml/min
[7] = target: T1, BICD2, full-length mouse; assay: as above; details: both partners purified
[8] = target: T4, BICD2-AF488 (BICD2-SNAP labelled with SNAP-Surface Alexa Fluor 488) (mouse, UniProt Q921C5 1-820, Alexa Fluor 488 on the SNAP tag (SNAP-Surface Alexa Fluor 488)); assay: single-molecule TIRF dual-colour co-migration on microtubules; details: both partners purified
T4 construct: also called BICD2-488; not shown: SNAP, C-terminal, kept
T4 sequence (Q921C5 whole entry): as the sequence (Q921C5 whole entry) above

B1: ScaC^50–159 (domain or fragment)
chain: LRKDIAEVSKLLCMLEKSTASSKNLTMRLQQSDTRENEQSNHIRLLITEIESINKENDCLRQKNNQLKIKLHQLKVKLEQALARNTDLQQILPKSQAEMDNLRKQNEQLK
notes: source: SoluBL21 E. coli, purified (StrepTactin, Superdex 200)
[1]
  binding result: binds

B2: Strep-BICD2^711–800 (CC3 domain) (domain or fragment, mouse, UniProt Q921C5 711-800, looked up)
chain: YENEKAMVTETMMKLRNELKALKEDAATFSSLRAMFATRCDEYITQLDEMQRQLAAAEDEKKTLNSLLRMAIQQKLALTQRLELLELDHE
notes: also called CC3 of BICD2; not shown: Strep, N-terminal, kept
[2]
  binding result: binds
[3]
  binding result: binds
[4]
  binding result: binds

B3: Strep-BICD2^711–800 L786A (domain or fragment, mouse, UniProt Q921C5 711-800, looked up)
chain: YENEKAMVTETMMKLRNELKALKEDAATFSSLRAMFATRCDEYITQLDEMQRQLAAAEDEKKTLNSLLRMAIQQKAALTQRLELLELDHE
notes: not shown: Strep, N-terminal, kept
[5]
  binding result: binds

B4: Strep-BICD2^711–800 L742A/L786A (domain or fragment, mouse, UniProt Q921C5 711-800, looked up)
chain: YENEKAMVTETMMKLRNELKALKEDAATFSSARAMFATRCDEYITQLDEMQRQLAAAEDEKKTLNSLLRMAIQQKAALTQRLELLELDHE
notes: also called double L742A/L786A mutant; not shown: Strep, N-terminal, kept
[5]
  binding result: binds

B5: Strep-BICD2^711–800 L742A (domain or fragment, mouse, UniProt Q921C5 711-800, looked up)
chain: YENEKAMVTETMMKLRNELKALKEDAATFSSARAMFATRCDEYITQLDEMQRQLAAAEDEKKTLNSLLRMAIQQKLALTQRLELLELDHE
notes: as for B3
[5]
  binding result: binds

## B6
[6]
  stoichiometry N: 2
[7]
  stoichiometry N: 1 ScaC:BICD2 (2:2)

B7: ScaC-AF647 (ScaC-SNAP labelled with SNAP-Surface Alexa Fluor 647) (domain or fragment)
chain: VSNMNLDISNMGEAREGLRKDIAEVSKLLCMLEKSTASSKNLTMRLQQSDTRENEQSNHIRLLITEIESINKENDCLRQKNNQLKIKLHQLKVKLEQALARNTDLQQILPKSQAEMDNLRKQNEQLKIQLQQLQVKLQDLMSLQNKCSNLALINSVKLNYIRDIKYIALANIVIVKALASTFTEKLSKSNR
modifications: Alexa Fluor 647 on the SNAP tag (SNAP-Surface Alexa Fluor 647)
notes: source: SoluBL21 E. coli, purified (Ni-NTA, MonoQ, labelling, Superdex 200)
[8]
  binding result: binds
